Target: T1, D614G S2P probe (SARS-CoV-2, WA-1 with D614G, UniProt A0A6H1PJZ3, D614G | K986P | V987P, biotin on the AVI tag (…))
T1 construct: also called single mutated D614G S2P
Experiment: BLI
Details: both partners purified

B1: A19-46.1 (antibody, V domains shown)
VH: QVQLVESGGGVVQPGRSLRLSCAASGFTLSSYGMHWVRQAPGKGLEWVAVISYDGSNKYYVDSVKGRFTISRDNSKNTLYLQMNSLRAEDTAVYYCARGWAYWELLPDYYYGMDVWGQGTTVTVSS
VL: QTVVTQEPSFSVSPGGTVTLTCGLSSGSVSTAYFPSWYQQTPGQAPRTLIYGTNTRSSGVPDRFSGSILGNKAALTITGAQADDESDYYCVLYMGRGIVVFGGGTKLTVL
  binding result: binds

From PMC9129042 (PLoS ONE, 2022)
